Reference: the supplement of paper PMC10126150
± gives the standard deviation of the averaged measurements.

Test system: ATP
Test: switch fluorescence ratio, 500 uM ATP over buffer (Cy3 cluster intensity, sum of 5 cycles each) (fold (ratio)); higher = stronger signal-on switching upon ATP binding; sequences stand for … in TCGTCGGCAGCGTCAGATGTGTATAAGAGACAGTTTTTTTTTTTTTTTTTTTTTTTTT…TC
Conditions: aptamer strand: ATP DNA aptamer (quencher-CACCTGGGGGAGTATTGCGGAGGAAGG + anchor), 100 nM annealed; ATP concentration: 500 uM
How it was run: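 Five buffer/ATP imaging cycles were run on Cy3-labelled switching-strand clusters on a modified Illumina MiSeq flow-cell, with NaOH stripping and re-annealing between cycles. In each cycle, clusters annealed to 100 nM quencher-labelled ATP aptamer were imaged in selection buffer, then after 15 min with 500 uM ATP at 22 °C. Per cluster, the fluorescence ratio is summed target-cycle over summed buffer-cycle Cy3 intensity, averaged per switch-domain sequence. Only clusters within 100-1000 RFU were kept.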
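Further: ATP exposure 15 min at 22 °C before imaging.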

Question: Which switch fluorescence ratio does the source give for TTCAGGATTA here?
Answer: 0.9939 ± 0.0091

Question: How did the switch fluorescence ratio turn out when TTCAGGGGAG was run?
Answer: 0.975 ± 0.04

Question: With TTCAGGGGCG as the sequence, how does the switch fluorescence ratio read?
Answer: 1.07 ± 0.13

Question: How did the switch fluorescence ratio turn out when TTCAGGGTAT was run?
Answer: 1.01 ± 0.037

Question: TTCAGGTAAC was tested. Which switch fluorescence ratio did it give?
Answer: 1.054 ± 0.0022

Question: Which switch fluorescence ratio does the source give for TTCAGGTGGT here?
Answer: 1.06 ± 0.13

Question: How did the switch fluorescence ratio turn out when TTCAGGTTCT was run?
Answer: 1 ± 0.04

Question: TTCAGGTTTC was tested. Which switch fluorescence ratio did it give?
Answer: 1 ± 0.037

Question: Which switch fluorescence ratio does the source give for TTCAGTGTCG here?
Answer: 1.01 ± 0.073

Question: How did the switch fluorescence ratio turn out when TTCAGTTAAT was run?
Answer: 1 ± 0.0032

Question: TTCATATAGG was tested. Which switch fluorescence ratio did it give?
Answer: 0.984 ± 0.021

Question: For TTCATATATG, which switch fluorescence ratio is on record?
Answer: 0.989 ± 0.018

Question: Which switch fluorescence ratio does the source give for TTCATATTG here?
Answer: 0.9923 ± 0.0019

Question: For TTCATCCGGT, which switch fluorescence ratio is on record?
Answer: 1.52 ± 0.091

Question: How did the switch fluorescence ratio turn out when TTCATCGTAT was run?
Answer: 1.01 ± 0.015

Question: Which switch fluorescence ratio does the source give for TTCATGAGTG here?
Answer: 0.9696 ± 0.0051

Question: How did the switch fluorescence ratio turn out when TTCATTACGT was run?
Answer: 0.996 ± 0.029

Question: How did the switch fluorescence ratio turn out when TTCATTGAGT was run?
Answer: 1.028 ± 0.0048

Question: With TTCATTGGGG as the sequence, how does the switch fluorescence ratio read?
Answer: 0.99 ± 0.018

Question: With TTCATTTCTG as the sequence, how does the switch fluorescence ratio read?
Answer: 1.02 ± 0.039

Question: TTCATTTGTT was tested. Which switch fluorescence ratio did it give?
Answer: 1.11 ± 0.16

Question: With TTCATTTTAG as the sequence, how does the switch fluorescence ratio read?
Answer: 1.02 ± 0.031

Question: TTCCAAAAGG was tested. Which switch fluorescence ratio did it give?
Answer: 1.02 ± 0.054

Question: Which switch fluorescence ratio does the source give for TTCCACTTGA here?
Answer: 1.04 ± 0.047

Question: With TTCCAGATTC as the sequence, how does the switch fluorescence ratio read?
Answer: 0.964 ± 0.013

Question: Which switch fluorescence ratio does the source give for TTCCAGGCAA here?
Answer: 4.47 ± 0.45

Question: For TTCCAGGGGG, which switch fluorescence ratio is on record?
Answer: 1.08 ± 0.089

Question: TTCCATATGT was tested. Which switch fluorescence ratio did it give?
Answer: 0.975 ± 0.021

Question: For TTCCATGAGT, which switch fluorescence ratio is on record?
Answer: 0.963 ± 0.019

Question: For TTCCCATTTT, which switch fluorescence ratio is on record?
Answer: 0.995 ± 0.013

Question: How did the switch fluorescence ratio turn out when TTCCCCAGGG was run?
Answer: 3.63 ± 1.6

Question: TTCCCGGCAG was tested. Which switch fluorescence ratio did it give?
Answer: 1.38 ± 0.47

Question: For TTCCCGGGGA, which switch fluorescence ratio is on record?
Answer: 1.24 ± 0.4

Question: TTCCCTAATC was tested. Which switch fluorescence ratio did it give?
Answer: 1.02 ± 0.067

Question: TTCCCTAGTT was tested. Which switch fluorescence ratio did it give?
Answer: 1.004 ± 0.0029

Question: How did the switch fluorescence ratio turn out when TTCCGAAAGA was run?
Answer: 1.11 ± 0.066

Question: How did the switch fluorescence ratio turn out when TTCCGATGGA was run?
Answer: 1.33 ± 0.26

Question: Which switch fluorescence ratio does the source give for TTCCGGAAAA here?
Answer: 1.01 ± 0.05

Question: Which switch fluorescence ratio does the source give for TTCCGGAGGG here?
Answer: 1.02 ± 0.063

Question: How did the switch fluorescence ratio turn out when TTCCGGCGGA was run?
Answer: 1.08 ± 0.026

Question: How did the switch fluorescence ratio turn out when TTCCGGGCCC was run?
Answer: 1.16 ± 0.041

Question: TTCCGGGCTG was tested. Which switch fluorescence ratio did it give?
Answer: 1 ± 0.02

Question: Which switch fluorescence ratio does the source give for TTCCGGGGAT here?
Answer: 1.04 ± 0.044

Question: For TTCCGGGGGT, which switch fluorescence ratio is on record?
Answer: 1 ± 0.015

Question: With TTCCGGTTCT as the sequence, how does the switch fluorescence ratio read?
Answer: 1.03 ± 0.013

Question: Which switch fluorescence ratio does the source give for TTCCGTATTT here?
Answer: 1.15 ± 0.012

Question: TTCCGTTCAG was tested. Which switch fluorescence ratio did it give?
Answer: 1.03 ± 0.0075

Question: Which switch fluorescence ratio does the source give for TTCCGTTGGG here?
Answer: 1.028 ± 0.0032

Question: With TTCCTACGAT as the sequence, how does the switch fluorescence ratio read?
Answer: 1.42 ± 0.56

Question: How did the switch fluorescence ratio turn out when TTCCTATGTG was run?
Answer: 1.01 ± 0.036

Question: With TTCCTCCCCT as the sequence, how does the switch fluorescence ratio read?
Answer: 1.7 ± 0.82

Question: Which switch fluorescence ratio does the source give for TTCCTCGCTT here?
Answer: 2.75 ± 1.6

Question: With TTCCTGAGTT as the sequence, how does the switch fluorescence ratio read?
Answer: 1.16 ± 0.21

Question: With TTCCTTTAGG as the sequence, how does the switch fluorescence ratio read?
Answer: 0.98 ± 0.06

Question: How did the switch fluorescence ratio turn out when TTCCTTTTAC was run?
Answer: 1.16 ± 0.008

Question: With TTCGAAGGAA as the sequence, how does the switch fluorescence ratio read?
Answer: 1.1 ± 0.028

Question: With TTCGACCTAG as the sequence, how does the switch fluorescence ratio read?
Answer: 0.986 ± 0.014

Question: Which switch fluorescence ratio does the source give for TTCGACTAGC here?
Answer: 1.03 ± 0.03

Question: Which switch fluorescence ratio does the source give for TTCGAGCCGA here?
Answer: 1.029 ± 0.0064

Question: With TTCGAGGGGG as the sequence, how does the switch fluorescence ratio read?
Answer: 1.01 ± 0.031

Question: TTCGCAACAG was tested. Which switch fluorescence ratio did it give?
Answer: 2.19 ± 0.67

Question: With TTCGCAGTCA as the sequence, how does the switch fluorescence ratio read?
Answer: 1.03 ± 0.052

Question: For TTCGCCAATG, which switch fluorescence ratio is on record?
Answer: 1.07 ± 0.03

Question: TTCGCGCGGT was tested. Which switch fluorescence ratio did it give?
Answer: 1.04 ± 0.077

Question: TTCGCGCTTT was tested. Which switch fluorescence ratio did it give?
Answer: 1 ± 0.036

Question: How did the switch fluorescence ratio turn out when TTCGCTACGG was run?
Answer: 1.05 ± 0.029

Question: For TTCGCTGGTA, which switch fluorescence ratio is on record?
Answer: 1.15 ± 0.22

Question: How did the switch fluorescence ratio turn out when TTCGGAGGGC was run?
Answer: 0.996 ± 0.031

Question: Which switch fluorescence ratio does the source give for TTCGGCTGCA here?
Answer: 1.08 ± 0.064

Question: Which switch fluorescence ratio does the source give for TTCGGGACCC here?
Answer: 1.08 ± 0.1

Question: Which switch fluorescence ratio does the source give for TTCGGGAGCC here?
Answer: 1 ± 0.024

Question: How did the switch fluorescence ratio turn out when TTCGGGATCG was run?
Answer: 0.981 ± 0.057

Question: For TTCGGGATTG, which switch fluorescence ratio is on record?
Answer: 0.997 ± 0.024

Question: For TTCGGGCAGG, which switch fluorescence ratio is on record?
Answer: 1.06 ± 0.054

Question: With TTCGGGCCGA as the sequence, how does the switch fluorescence ratio read?
Answer: 0.998 ± 0.017

Question: For TTCGGGCGAT, which switch fluorescence ratio is on record?
Answer: 1.01 ± 0.013

Question: How did the switch fluorescence ratio turn out when TTCGGGCTGT was run?
Answer: 0.996 ± 0.011

Question: TTCGGGGAT was tested. Which switch fluorescence ratio did it give?
Answer: 0.982 ± 0.032

Question: TTCGGGGCGC was tested. Which switch fluorescence ratio did it give?
Answer: 1.03 ± 0.065

Question: TTCGGGGCTT was tested. Which switch fluorescence ratio did it give?
Answer: 0.983 ± 0.035

Question: How did the switch fluorescence ratio turn out when TTCGGGTATT was run?
Answer: 1.1 ± 0.2

Question: For TTCGGGTGGT, which switch fluorescence ratio is on record?
Answer: 1.04 ± 0.05

Question: TTCGGGTTTG was tested. Which switch fluorescence ratio did it give?
Answer: 1 ± 0.034

Question: Which switch fluorescence ratio does the source give for TTCGGTAAGG here?
Answer: 1.02 ± 0.013

Question: Which switch fluorescence ratio does the source give for TTCGGTAGCG here?
Answer: 0.996 ± 0.046
